Among the data in patent publication CN103012589A (SHANGHAI SERUM BIO TECHNOLOGY CO LTD; INST BIOENGINEERING …, dated 2013) are Kd, koff and kon values, retold here.

The chains are these.
B1: VA6L-K90D_D92V (antibody, V domains shown)
VH: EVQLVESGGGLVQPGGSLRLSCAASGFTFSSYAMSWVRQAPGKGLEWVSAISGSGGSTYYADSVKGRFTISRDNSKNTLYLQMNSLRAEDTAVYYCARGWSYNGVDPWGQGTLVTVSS
VL: SYELTQPPSVSVAPGQTARITCSGDALGDKYASWYQQKPGQAPVLVIYEDSKRPSGIPERFSGSNSGNTATLTISGTQAEDEADYYCQVDSVNYGYVFGGGTKLTVLG
notes: also called VA6-3
B2: VA6-57 (antibody, IgG1, V domains shown)
VH: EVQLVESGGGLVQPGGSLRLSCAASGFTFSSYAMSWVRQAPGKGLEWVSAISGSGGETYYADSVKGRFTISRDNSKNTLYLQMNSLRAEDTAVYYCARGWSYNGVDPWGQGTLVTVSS
VL: SYELTQPPSVSVAPGQTARITCSGDALGDKYASWYQQKPGQAPVLVIYEDSKRPSGIPERFSGSNSGNTATLTISGTQAEDEADYYCQVDSVNYGYVFGGGTKLTVLG
notes: Whole antibody (IgG1, lambda); built further on VA6-3
B3: VA6全抗体 (antibody, V domains shown)
VH: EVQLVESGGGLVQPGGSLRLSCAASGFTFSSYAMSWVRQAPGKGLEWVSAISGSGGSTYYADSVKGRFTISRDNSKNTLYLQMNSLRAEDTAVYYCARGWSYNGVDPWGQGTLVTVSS
VL: SYELTQPPSVSVAPGQTARITCSGDALGDKYASWYQQKPGQAPVLVIYEDSKRPSGIPERFSGSNSGNTATLTISGTQAEDEADYYCQVKSDNYGYVFGGGTKLTVLG
notes: Whole antibody from vectors pABL (lambda) and pABG1 (human IgG1), HEK293T transient expression

This test has as its target T1, 重组人VEGF165 (human, UniProt P15692-4 27-191).
T1 construct: also called VEGF双体; 人血管内皮细胞生长因子
T1 sequence: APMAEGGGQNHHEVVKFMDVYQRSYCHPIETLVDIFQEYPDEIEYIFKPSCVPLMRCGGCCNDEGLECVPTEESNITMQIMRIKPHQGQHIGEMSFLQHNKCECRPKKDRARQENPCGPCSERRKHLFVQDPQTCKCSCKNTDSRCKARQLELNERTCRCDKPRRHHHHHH
The experiment in a line: Biacore SPR, VEGF coupled on CM5 chip, whole antibody as analyte, 1:1 Langmuir fit. On the technique in general: SPR reads the build-up and loss of mass on a sensor chip optically.
As a reminder, the Kd is the concentration at which binding is half-saturated. Read a high Kd as a looser complex. As usually defined, the koff is a measure of how fast the partners let go of each other. By kon is commonly meant a measure of how fast the partners come together. Read a low kon as slow association. B1 yielded a Kd of 5.27 nM, a koff of 0.00149 s⁻¹ and a kon of 283000 M⁻¹ s⁻¹.
For B2 the same measures were 1.8 nM, 0.00096 s⁻¹ and 550000 M⁻¹ s⁻¹.
The molecule B3 came in with a Kd of 12.7 nM, a koff of 0.000445 s⁻¹ and a kon of 35000 M⁻¹ s⁻¹.
